# The RNAGym collection of RNA variant scans (doi:10.1073/pnas.2313332121)
# Fewer inactive variants are shown than the library holds.
# B1: TPR 5TU (parent)
# chain: GGAUCUUCUCGAUCUAACAAAAAAGACAAAUCUGCCACAAAGCUUGAGAGCAUCUUCGGAUGCAGAGGCGGCAGCCUUCGGUGGCGCGAUAGCGCCAACGUUCUCAACUAUGACACGCAAAACGCGUGCUCCGUUGAAUGGAGUUUAUCAUG
# Variants of: B1
# Test: polymerase ribozyme fitness, log enrichment relative to wild type (log ratio); higher = more active; in vitro selection for triplet polymerase activity
# Summary of the method: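 For each subunit of a heterodimeric triplet polymerase ribozyme, a mutant library was built by PCR and transcribed, then taken through a single in vitro selection round in triplicate. Selection involved annealing to a biotinylated primer, the partner subunit and triplets, incubation frozen at −7 °C, gel excision of extended constructs, capture on streptavidin beads and RT-PCR. Genotypes were retained after Illumina sequencing of inputs and outputs only with ≥10 input reads and ≥1 read in each output. Fitness is defined as the logarithm of a genotype's enrichment relative to wild-type enrichment, using inverse-variance-weighted averages across replicates, with the logarithm taken to base 2.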
row,Variant,polymerase ribozyme fitness (log ratio)
1,U55G A110G,-2.87
2,U55A G94C U148G,≤ -4.2
3,U55A C87A,≤ -4.2
4,U55A C87U,-1.1
5,U55A U127G,-2.72
6,U55A G136A,-0.833
7,U55A G83U,-1.69
8,C54U C87G C93U C125A G133A A142C,≤ -4.2
9,U55A G81A C87U U135A U146A,-2.11
10,C54U G92C,-1.07
11,U55A G94C,-0.443
12,C54U C79U G92U C95U G141C,-3.77
13,C54U C76A,-0.561
14,U55A U78C C123G,-0.403
15,C54U C76U C93G A150G,-4.08
16,U55A U56A A106C,-1.06
17,C54U C99U,-0.322
18,U55A U61A C96A C116G,-2.17
19,U55A G62A C87U C103U,-1.44
20,U55A G126U,-0.31
21,C54U U82C C95A G141U,-2.99
22,U55A C76U C93U C95U G143A,-2.72
23,U55A C85U A122G A142G U145G,-2.39
24,C54U G136A,0.306

row,Variant,polymerase ribozyme fitness (log ratio)
1,U55A C63A G83C G84U C125G U135A,≤ -4.2
2,U55A U109G A137U,-4.19
3,U55A G84A A119C G133U G143A,-4.03
4,C54U U77C G88A C96U A106C,≤ -4.2
5,U55A U82G C116A A121U A137C,-3.5
6,C54U G143A,-0.736
7,U55A G100A,≤ -4.2
8,U55A U82C,-0.191
9,U55A U82G,-0.931
10,U55A U61A A91U A97C A142G,≤ -4.2
11,U55C U56A A98U U145A,-1.11
12,U55A A113C,-2.92
13,U55A G74C C118U,≤ -4.2
14,U55A C93U C95U C96U,-3
15,C54U G86U,-1.78
16,C54U G86A,-1.18
17,U55A G143C,-2.99
18,U55A G71A U77C C95U A113C C149G,≤ -4.2
19,C54U C125G,-1.05
20,C54U U55G U82G,-1.38
21,U55G C57G C95U C96A C118G,-2.53
22,U55A G58U G83C G124C C132G,≤ -4.2
23,C54U G58A G92A U145A,-3.35
24,U55A G59A U148G,-2.52

row,Variant,polymerase ribozyme fitness (log ratio)
1,U55A U90C C95U U146C C149A,≤ -4.2
2,C54U G83U C85A U90G,≤ -4.2
3,U55A A91C,≤ -4.2
4,U55A G67A C85U U90A A98U,≤ -4.2
5,C54U G65A C85U A89G U146G,-4.13
6,C54U G84A U102G,-4.14
7,U55A G59C G94U A107C,≤ -4.2
8,U55A C79G G81A,-4.18
9,U55A A60G,0.676
10,U55A A60C,-4.18
11,C54U C72U,-0.468
12,U55A U56A,-0.654
13,U55A C57U C85G G94C C99G C149G,≤ -4.2
14,U55A G81A C93U C105A C118U,-3.74
15,C54U U55G C95A A119C U127G A142C,≤ -4.2
16,U55C G83C A115C C132U,-2.06
17,U55A C105G G141U,-2.82
18,C54U C85A C96U A97C A98G A121U,≤ -4.2
19,U55A C76G A138C,≤ -4.2
20,C54U U101G,-0.483
21,U55A U56C G58A G92C A119U U145G,-2.87
22,C54U U55G G58A A64U G88A C95G U127A,≤ -4.2
23,U55A A113U A121G U139G G141U U144A,≤ -4.2
24,U55A C63G C76U U78G G92C G136U G141C,≤ -4.2

row,Variant,polymerase ribozyme fitness (log ratio)
1,U55A C87U U90C A122U,≤ -4.2
2,U55A G58A C85A C131U,0.931
3,C54U G88A A89U C95A C99U U146G U151A,≤ -4.2
4,C54U U148A,-3.74
5,C54U C96A C105U,0.0167
6,U55A C57A C95U,-0.372
7,U55A A150C,-3.6
8,C54U C85U C95A,-1.84
9,U55A A115U G133U,≤ -4.2
10,U55G A60G C79U A119C,-2.12
11,U55A G58U G84A C103U A120C,-0.0961
12,C54U G58C,-0.858
13,C54U G58A,0.498
14,C54U C75G U78C C79A G80U,≤ -4.2
15,C54U U61A G84U C108G G140U,≤ -4.2
16,U55A G86U A91U G133U A147U,≤ -4.2
17,U55A A107G,-3.7
18,C54U G71U C85A C96G G133C U145G G152A,≤ -4.2
19,U55A U77C C105A A107U U127G A137C,≤ -4.2
20,U55G A73U,-2.35
21,U55A G92U G124U G141C,-1.14
22,U55A U139G,-0.865
23,U55A G84U A106C U144C U146C,-4.16
24,U55A G84U,-2.28

row,Variant,polymerase ribozyme fitness (log ratio)
1,U55A G84A,-1.01
2,U55A U61A C93U C103A,≤ -4.2
3,U55G A106C,-0.416
4,U55C U109G,-0.246
5,C54U G80A,-0.56
6,C54U C96A C105G G124U,-3.42
7,U55A G88C G133U U145C,≤ -4.2
8,C54U U77C G84A U109C,≤ -4.2
9,C54U G84A A97U,-1.27
10,C54U C96U U144G,0.217
11,C54U G81A C95U,-0.559
12,U55A C63G A121U,-0.282
13,U55A A97C,0.466
14,U55A A97U,-0.916
15,U55A U101G,-0.568
16,U55A A60U G84U C116G A119U,-2.63
17,U55A G62C G81A,-3.98
18,U55A U102G,-4.04
19,U55A G128A,-4.18
20,U55G A98U U144G,0.317
21,U55A A106U A107U,-4.11
22,C54U U56A G81A C95A U101C,-1.35
23,C54U G65U G81A C93U A97U,≤ -4.2
24,U55A A121U,-0.372

row,Variant,polymerase ribozyme fitness (log ratio)
1,U55A A91G U134A,-4.01
2,U55A U144A,-0.497
3,U55A U144G,0.364
4,U55A U144C,0.176
5,C54U G59C A60G A122U,0.186
6,U55A C93G G141C,-3.82
7,U55A G92U U146C,-0.69
8,U55A C79A A121C,≤ -4.2
9,C54U G88C,≤ -4.2
10,U55A G59A,1.69
11,U55A A142U,-0.464
12,U55A G141A,-0.587
13,C54U C95G,-1.07
14,C54U C95U,-0.851
15,C54U C75G G81C U127A,≤ -4.2
16,U55A C72A C99U G126A U139C,≤ -4.2
17,U55A G124A,-0.272
18,U55A G124U,-2
19,U55A C75U,0.238
20,U55A G94U C108A,≤ -4.2
21,U55A G70A C123G,-3.3
22,U55A U61G G86U,≤ -4.2
23,U55A G67A U127A,≤ -4.2
24,U55A C69G,-3.05

row,Variant,polymerase ribozyme fitness (log ratio)
1,U55A C76U A121C,-0.181
2,U55A C116G,0.374
3,U55G C57A C69U U109G C116A,-0.0851
4,U55A U61A C79A G83A U90G G143A,≤ -4.2
5,U55G A89G G124C U146C,-1.44
6,U55A G117A,-0.438
7,C54U U56C A73U,-1.06
8,C54U U78A G86U U104C C105A U130G C132A G136A,≤ -4.2
9,U55A C132A A137G G143A U146G,≤ -4.2
10,U55A G68C A91G A107C,≤ -4.2
11,U55A A138G,-2.51
12,U55A A138U,-3.9
13,U55A A91U C96A C125G A142G,≤ -4.2
14,U55A C96G A115U A119G,-2.42
15,U55A G59U A60G G94A,-1.02
16,C54U G59C A97U,-0.658
17,U55A G62A C69G G71A,≤ -4.2
18,C54U C87U G92C,-0.365
19,C54U C93U C96G U135A,-3.57
20,C54U U146G,-0.826
21,C54U U146A,-0.881
22,U55A C72U G83A,-0.82
23,C54U U82A G83A A98G,-1.89
